Values quoted from earlier work, collected in article doi:10.1101/2022.02.18.481064.

Target: Cys106 (UniProt position 106, LIAAICAGPTA)
Conditions: Reduced Cys106 thiol/thiolate is implied. The state is otherwise not stated.

For “DJ-1 (Parkinson disease protein 7, PARK7) (Homo sapiens)”, the pKa is given as 5.4.
